The record followed here is patent US20190322748A1 (Hoffmann-La Roche, published 2019).

Read-outs that look alike come from different tables or passages of the source.

By EC50 is commonly meant the concentration at which the effect is half-maximal. What is called Kd is the concentration at which binding is half-saturated. A lower Kd goes with tighter binding.

Test [1] concerns the target T1, full-length human Tim3 on cells (CHO-K1 stably transfected with plasmid 15312_hTIM3-fl_pUC_Neo) (human, UniProt Q8TDQ0 22-301).
T1 construct: Also used as the target of the MLR read-outs (native TIM-3); also called CHO-Tim3; CHO-TIM3
Briefly: cell ELISA on CHO-K1 cells with full-length human Tim3.

Test [2] concerns the target T1, full-length human Tim3 on cells (CHO-K1 …). In words: cell-based or functional assay.
Test [3] deals with full-length human PD1 on cells (CHO-K1 stably transfected with plasmid 15311_hPD1-fl_pUC_Neo) (human, UniProt Q15116 25-288). Briefly: cell-based or functional assay.
Test [4] deals with T2, biotinylated PD1-ECD-AviHis (human, UniProt Q15116 25-170, biotinylated, site not stated).
T2 construct: also called huPD1; hu PD1
In words: ELISA on coated biotinylated PD1-ECD-AviHis. For orientation: An ELISA detects its analyte on a solid surface through an enzyme-linked reagent.

The target of a further test is T3, human PD1-ECD (human, UniProt Q15116 25-170).
T3 construct: SPR analyte; also called hu PD1-ECD
Briefly: SPR Biacore T200, Ab captured on anti-human Fc IgG, hu PD1-ECD in solution, 25 C. In general terms: In SPR one partner is held on a chip, and binding of the other changes the refractive index at the surface.

Test [5] deals with T4, biotinylated TIM3-ECD-AviHis (human, UniProt Q8TDQ0 22-202, biotinylated, site not stated).
T4 construct: also called huTIM3; Hu TIM3
In words: ELISA on coated biotinylated TIM3-ECD-AviHis.

A further test deals with T5, monomeric human Tim3-ECD (human, UniProt Q8TDQ0 22-202).
T5 construct: SPR analyte; also called huTim3; hu Tim3-ECD
In words: SPR Biacore T200, Ab captured on anti-human Fab IgG, hu Tim3-ECD in solution, 25 C.

Test [6] addresses T6, Tim3-CLIP (on transiently transfected HEK293 cells) (human, CLIP-tag labelled with Clip-Red).
T6 construct: The plasmid encodes residues 1-202 including the signal peptide; also called CLIP-tagged TIM3
In words: cell-based TR-FRET (Tag-lite) on HEK293 cells co-transfected with PD1-SNAP (Lumi4-Tb) and Tim3-CLIP (Clip-Red), 1 h at 4 C; signal needs both receptors bound at once by one antibody; mean +/- SD, n=3. (In general: TR-FRET usually uses a lanthanide donor and a delayed reading to cut background.)

Test [7] addresses T7, PD1-SNAP (on transiently transfected HEK293 cells) (human, SNAP-tag labelled with SNAP-Lumi4-Tb).
T7 construct: also called SNAP-tagged PD1
Described as above.

In test [8] the target is T6, Tim3-CLIP (on transiently transfected …). The description is as above. This is another data set of the same source.

B1: Tim3_0033 (antibody, V domains shown)
VH: QGQMHQSGAELVKPGSSVKLSCKTSGFTFSSSFISWLKQKPGQSLEWIAWIYAATGSTSYNQKFTNKAQLTVDTSSSAAYMQFSSLTTEDSAIYYCARHAGYPHYYAMDYWGQGTSVTVSS
VL: DIQMTQSPASLSASVGETVTITCRASENIFSNLAWYQQKQGKSPQLLVYSATNLGDGVPSRFSGSGSGTQFSLKINSLQPEDFGNYYCQHFYKIPFTFGTGTKLEIK
Turning to B1, the response in [1] was half-maximal at 3.71 µg/mL (EC50). Further, in test [2], the “IFN-gamma release in MLR at 1 µg/ml antibody, % of rec hu IL-2 (20 EU/ml) = 100%” value amounted to 0%; the “IFN-gamma release in MLR at 10 µg/ml antibody, % of rec hu IL-2 (20 EU/ml) = 100%” value was found to be 30%; the “IFN-gamma release in MLR at 40 µg/ml antibody, % of rec hu IL-2 (20 EU/ml) = 100%” value worked out at 35%.

B2: Tim3_0026 (antibody, V domains shown)
VH: QIQLVQSGPELKKPGETVKISCKASGYTFTDYSMHWVKQAPGRGLKWMGYINTETYEPTFGADFKGRFAFSLDTSATTAYLQINSLKTEDTATFFCGGGGYPAYWGQGTVVIVSA
VL: DVLMTQTPLSLPVSLGDQASISCRSSRTILHSSGNTYLEWYLQKPGQSPKLLIYKVSNRFSGVPDRFSGSGSGTDFTLNISRVEAEDLGVYYCFQDSHVPFTFGTGTKLEIK
In test [1], B2 registered a half-maximal effective concentration (EC50) of 0.069 µg/mL. Besides, in test [2], the “IFN-gamma release in MLR at 1 µg/ml antibody, % of rec hu IL-2 (20 EU/ml) = 100%” value is 18%; the “IFN-gamma release in MLR at 10 µg/ml antibody, % of rec hu IL-2 (20 EU/ml) = 100%” value came to 16%; the “IFN-gamma release in MLR at 40 µg/ml antibody, % of rec hu IL-2 (20 EU/ml) = 100%” value came to 25%.

B3: Tim3_0021 (antibody, V domains shown)
VH: QVQLQQSGPQLVRPGASVQISCKASGYSFTSYLLHWLKQRPGQGLEWIGMIDPSDSETRLNQKFKDKATLTVDKSSSTAYMQLSSPTSEDSAVYYCARDGYYAWYYFDCWGQGTTLTVSS
VL: DIVLTQSPATLSVTPGDRVSLSCRASQSIGNNLHWYQQKSHESPRLLIKYASHSISGIPSKFSGTGSGTDFTLSFNSVETEDFGMYFCQQSNSWPLTFGAGTKLELK
Take B3: the midpoint of the response in [1], the EC50, lay at 0.073 µg/mL. In addition, in test [2], the “IFN-gamma release in MLR at 1 µg/ml antibody, % of rec hu IL-2 (20 EU/ml) = 100%” value was 101%; the “IFN-gamma release in MLR at 10 µg/ml antibody, % of rec hu IL-2 (20 EU/ml) = 100%” value is 108%; the “IFN-gamma release in MLR at 40 µg/ml antibody, % of rec hu IL-2 (20 EU/ml) = 100%” value amounted to 112%.

B4: 2+2 PD1TIM3_0358 (chimeric PD1-0103 / Tim3-0028) (bispecific antibody, human IgG1, kappa, L234A L235A)
heavy: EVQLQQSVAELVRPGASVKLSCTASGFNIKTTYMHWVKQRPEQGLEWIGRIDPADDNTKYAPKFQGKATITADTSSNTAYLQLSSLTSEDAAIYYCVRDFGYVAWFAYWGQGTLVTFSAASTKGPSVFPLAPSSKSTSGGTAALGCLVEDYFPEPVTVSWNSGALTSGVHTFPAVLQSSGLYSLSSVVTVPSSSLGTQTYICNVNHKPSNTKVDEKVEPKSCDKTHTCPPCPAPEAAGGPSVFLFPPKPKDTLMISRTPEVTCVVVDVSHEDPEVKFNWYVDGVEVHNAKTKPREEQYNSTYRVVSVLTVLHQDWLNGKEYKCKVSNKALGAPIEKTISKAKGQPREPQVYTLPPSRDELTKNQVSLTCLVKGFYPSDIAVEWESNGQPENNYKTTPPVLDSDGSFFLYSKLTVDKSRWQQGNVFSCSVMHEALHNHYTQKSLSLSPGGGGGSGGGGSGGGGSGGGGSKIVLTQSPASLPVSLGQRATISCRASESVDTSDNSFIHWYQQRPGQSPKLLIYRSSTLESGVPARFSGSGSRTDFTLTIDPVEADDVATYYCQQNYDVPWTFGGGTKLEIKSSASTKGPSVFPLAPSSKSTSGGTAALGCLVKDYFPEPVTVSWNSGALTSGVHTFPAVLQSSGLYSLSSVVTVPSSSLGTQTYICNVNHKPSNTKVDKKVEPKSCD
light 1: NIVMTPTPKFLPVSSGDRVTMTCRASQSVDNYVAWYQQKPGQSPKLLIYYASNRYIGVPDRFTGSGSGTDFTFTISSVQVEDLAVYFCQQHYSSPYTFGSGTKLEIKRTVAAPSVFIFPPSDRKLKSGTASVVCLLNNFYPREAKVQWKVDNALQSGNSQESVTEQDSKDSTYSLSSTLTLSKADYEKHKVYACEVTHQG
light 2: EVILVESGGGLVKPGGSLKLSCAASGFSFSSYTMSWVRQTPEKRLDWVATISGGGRDIYYPDSVKGRFTISRDNAKNTLYLEMSSLMSEDTALYYCVLLTGRVYFALDSWGQGTSVTVSSASVAAPSVFIFPPSDEQLKSGTASVVCLLNNFYPREAKVQWKVDNALQSGNSQESVTEQDSKDSTYSLSSTLTLSKADYEKHKVYACEVTHQGLSSPVTKSFNRGEC
notes: also called PD1TIM3-0358 (2 + 2); Bispec AB 0358 (2+2)
In the case of B4, the “EC50 of IFN-gamma secretion in MLR, donors D1 + D3” value in test [3] amounted to 6.8 nM. Further, the “EC50 of IFN-gamma secretion in MLR, donors D2 + D4” value in test [3] came out at 5.7 nM. The concentration giving a half-maximal response (EC50) in test [4] amounted to 0.08 nM; in [5], 0.19 nM. Further, the equilibrium dissociation constant (Kd) came to 0.3 nM with human PD1-ECD and 240 nM in the test with monomeric human Tim3-ECD.

B5: 2+2 PD1TIM3_0359 (chimeric PD1-0103 / Tim3-0018) (bispecific antibody, human IgG1, kappa, L234A L235A)
heavy: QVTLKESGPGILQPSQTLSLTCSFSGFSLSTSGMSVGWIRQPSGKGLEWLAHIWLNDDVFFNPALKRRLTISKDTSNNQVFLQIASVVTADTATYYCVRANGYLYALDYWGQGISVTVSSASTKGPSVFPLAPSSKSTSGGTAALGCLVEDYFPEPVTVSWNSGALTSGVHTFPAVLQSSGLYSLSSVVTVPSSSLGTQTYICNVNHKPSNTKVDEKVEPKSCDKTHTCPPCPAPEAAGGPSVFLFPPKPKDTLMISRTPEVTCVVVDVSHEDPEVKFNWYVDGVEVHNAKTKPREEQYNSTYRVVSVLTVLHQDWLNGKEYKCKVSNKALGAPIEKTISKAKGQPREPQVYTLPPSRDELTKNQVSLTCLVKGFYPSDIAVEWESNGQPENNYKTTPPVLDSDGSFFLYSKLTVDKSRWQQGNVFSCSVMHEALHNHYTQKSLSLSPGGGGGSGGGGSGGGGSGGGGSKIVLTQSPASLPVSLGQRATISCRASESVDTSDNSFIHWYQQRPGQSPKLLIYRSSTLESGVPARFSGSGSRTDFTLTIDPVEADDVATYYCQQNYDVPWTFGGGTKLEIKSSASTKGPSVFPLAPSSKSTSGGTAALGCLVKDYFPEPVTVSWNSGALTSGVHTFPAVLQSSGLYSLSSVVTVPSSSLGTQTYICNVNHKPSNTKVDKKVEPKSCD
light 1: QIVLTQSPAIMSASPGQKVTITCSASSSVNYTQWYQQKLGSSPKLWIYDAFKLAPGVPARFSGSGTGTSYSLTISSMEAEDAASYFCHQWSSYPWTFGGGTKLEIKRTVAAPSVFIFPPSDRKLKSGTASVVCLLNNFYPREAKVQWKVDNALQSGNSQESVTEQDSKDSTYSLSSTLTLSKADYEKHKVYACEVTHQGLSSPVTKSFNRGEC
light 2: B4 light 2
notes: 2+2 CrossMAb: TIM3 IgG with a crossed PD1 Fab fused by (G4S)4 to the C-terminus of each heavy chain; also called PD1TIM3-0359 (2 + 2)
On to B5, for which the EC50 in test [4] is 0.09 nM; in [5] it was 0.11 nM. Also, the results for the Kd in the test with human PD1-ECD and in the test with monomeric human Tim3-ECD were 1.8 nM and 2.3 nM, respectively. The binding result in [6] and in test [7] was “binds” each time.

B6: 1+1 PD1TIM3_0476 (based on humanized PD1-0103_0312 / Tim3-0438) (bispecific antibody, human IgG1, kappa, L234A L235A)
heavy 1: not shown
heavy 2: EVQLVESGGGLVQPGGSLRLSCAASGFNIKTTYMHWVRQAPGKGLEWVGRIDPADDNTKYAPKFQGKATISADTSKNTAYLQMNSLRAEDTAVYYCVRDFGYVAWFAYWGQGTLVTVSSASTKGPSVFPLAPSSKSTSGGTAALGCLVEDYFPEPVTVSWNSGALTSGVHTFPAVLQSSGLYSLSSVVTVPSSSLGTQTYICNVNHKPSNTKVDEKVEPKSCDKTHTCPPCPAPEAAGGPSVFLFPPKPKDTLMISRTPEVTCVVVDVSHEDPEVKFNWYVDGVEVHNAKTKPREEQYNSTYRVVSVLTVLHQDWLNGKEYKCKVSNKALGAPIEKTISKAKGQPREPQVCTLPPSRDELTKNQVSLSCAVKGFYPSDIAVEWESNGQPENNYKTTPPVLDSDGSFFLVSKLTVDKSRWQQGNVFSCSVMHEALHNHYTQKSLSLSPGK
light 1: EVQLLESGGGLVQPGGSLRLSCAASGFSFSSYTMSWVRQAPGKGLEWVATISGGGRDIYYPDSVKGRFTISRDNSKNTLYLQMNSLRAEDTAVYYCVLLTGRVYFALDSWGQGTLVTVSSASVAAPSVFIFPPSDEQLKSGTASVVCLLNNFYPREAKVQWKVDNALQSGNSQESVTEQDSKDSTYSLSSTLTLSKADYEKHKVYACEVTHQGLSSPVTKSFNRGEC
light 2: DIVMTQSPLSLPVTPGEPASISCRASQSVDNYVAWYLQKPGQSPQLLIYYASNRYIGVPDRFSGSGSGTDFTLKISRVEAEDVGVYYCQQHYSSPYTFGQGTKVEIKRTVAAPSVFIFPPSDRKLKSGTASVVCLLNNFYPREAKVQWKVDNALQSGNSQESVTEQDSKDSTYSLSSTLTLSKADYEKHKVYACEVTHQGLSSPVTKSFNRGEC
notes: 1+1 CrossMAb Vh-VL: HC1/LC1 form the crossed PD1 arm, HC2/LC2 the TIM3 arm; knobs into holes
Turning to B6, the binding result in test [8] is “binds”. In addition, binding with monomeric human Tim3-ECD was put at a Kd of 332 nM.

B7: 1+1 PD1TIM3_0477 (based on humanized PD1-0103_0312 / Tim3-0434) (bispecific antibody, human IgG1, kappa, L234A L235A)
heavy 1: not shown
heavy 2: QITLKESGPTLVKPTQTLTLTCTFSGFSLSTSGMSVGWIRQPPGKGLEWLAHIWLNDDVFFNPALKSRLTITKDTSKNQVVLTMTNMDPVDTATYYCVRANGYLYALDYWGQGTLVTVSSASTKGPSVFPLAPSSKSTSGGTAALGCLVEDYFPEPVTVSWNSGALTSGVHTFPAVLQSSGLYSLSSVVTVPSSSLGTQTYICNVNHKPSNTKVDEKVEPKSCDKTHTCPPCPAPEAAGGPSVFLFPPKPKDTLMISRTPEVTCVVVDVSHEDPEVKFNWYVDGVEVHNAKTKPREEQYNSTYRVVSVLTVLHQDWLNGKEYKCKVSNKALGAPIEKTISKAKGQPREPQVCTLPPSRDELTKNQVSLSCAVKGFYPSDIAVEWESNGQPENNYKTTPPVLDSDGSFFLVSKLTVDKSRWQQGNVFSCSVMHEALHNHYTQKSLSLSPGK
light 1: B6 light 1
light 2: DIQLTQSPSFLSASVGDRVTITCSASSSVSYTQWYQQKPGKAPKLWIYDAFKLAPGVPSRFSGSGSGTEFTLTISSLQPEDFATYFCHQWSSYPWTFGQGTKLEIKRTVAAPSVFIFPPSDRKLKSGTASVVCLLNNFYPREAKVQWKVDNALQSGNSQESVTEQDSKDSTYSLSSTLTLSKADYEKHKVYACEVTHQGLSSPVTKSFNRGEC
notes: 1+1 CrossMAb Vh-VL: HC1/LC1 form the crossed PD1 arm, HC2/LC2 the TIM3 arm; knobs into holes; also called PD1TIM3_477
Take B7: the binding result in test [8] was “binds”. For the same molecule, in the test with monomeric human Tim3-ECD, the affinity, expressed as Kd, was 12 nM.
